The data set is described as follows: yeast display, Sf9 membrane polyspecificity reagent, FACS + sequencing; frameworks hold sequencing errors. An outline of the steps:
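Polyreactivity labels are assigned by the sorting gate from which each nanobody was recovered. The gates were low and high (top ~1%), set on anti-HA fluorescence for expression and streptavidin fluorescence for reagent binding. Before sorting, galactose-induced (36–48 hours) yeast display cells were stained for 1 hour at 4 °C with 10% biotinylated, detergent-solubilized Sf9 membrane reagent.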
For “QVQFVESGGGLVQAGGSLRVSCAASGSTFQGYAMGWSRQAPGKERELVAAISRSGGRTYYADSVKGRFTISRDNAKNTVYLQMNSLKPEDTAVYYCAAEGHELTEGDSWGQGTQVTVSS”, the “polyreactivity (PSR sort gate)” value is “low polyreactivity”.

In the case of “QVQHEESGGGLVQAGGSLRLSCAASGRTYDPYAMGWYRQAPGKERELVAAISSGGSTNYADSVKGRFTISRDNAKNTVYLQMNSLKPEDTAVYYCGTDSGDGEGDYWGQGSQVTVSS”, the “polyreactivity (PSR sort gate)” value is on record as “low polyreactivity”.

Consider “QVQHEESGGGLVQAGGSLRLSCAASGSIFLHYAIGWYRQAPGKERVFVAAISFRSGSTYYADSVKGRFTISRDNAKNTVYLKLNSLKPEDTAVYYCASKSYNFIPGIREYDYWGQGTQVTVSS”, for which the “polyreactivity (PSR sort gate)” value was “low polyreactivity”.

Consider “QVQHEESGGGLVQAGGSLRLSCAASGSIFLWNAMGSYRQAPGKERELVASIGDSTYYADSVKGRFTISRDNAKNTVYLQMNSLKPEDTAVYYCKAEVLNYLVFGYQLCYDYWGQGTQVTVSS”, for which the “polyreactivity (PSR sort gate)” value was “low polyreactivity”.

In the case of “QVQHGESGGGLLQAGGSLRLSCAASGFIFGVYEMGWYRQAPGKDTELVAAIMRSGGSTYYADSVKGRFTISRDIAKNTVYLQMNSLKPEDTAVYYCAAAYTGKYRKYDYWGQGTQVTVSS”, the “polyreactivity (PSR sort gate)” value is “high polyreactivity”.

As for “QVQHGESGGGLVQAGGRLRLICAASGSISVWYVMGWYRQAPGKERELVAAITRSGGSTFYADSVKGRFTISRDNAKNTVYLEMNSLKPEDTAVYYCAADFPSLYVWYGYGWYKYDYWGQGTQVTVSS”, the “polyreactivity (PSR sort gate)” value is “low polyreactivity”.

Take “QVQHLESGGGVVQAGGSIRLSCAASVIIFRAYAMGWYRQAPGKERELVAAITSRGGSTYYADSVKGRFTFSRDNAKNTVYLQMNSLKQEDTAVYYCNAAALADYDYWGQGTQVTLSS”: the “polyreactivity (PSR sort gate)” value is reported as “low polyreactivity”.

For “QVQHVDSGGGLVQAGGSLRLSCAASGRTLTVYAMGWYRQAPGKERELVAAITWRGGSTYYADSVKGRFTISRDNAKNTVYLPMNSLKPADTPVDYCAAEDYTYNGGGYEYWGQGTQVTVSS”, the “polyreactivity (PSR sort gate)” value is “low polyreactivity”.

In the case of “QVQHVDSRGGLVQAGGSLRLSCAASGSIVPWNDMGWYRQAPGKERQLVAAITYRGGRTYYADSVKGRFTISRDNAKNTVYLQMNSLKPEDTAVYYCATKSRRNSPRMDYWGQGTQVTVSS”, the “polyreactivity (PSR sort gate)” value is “high polyreactivity”.

With “QVQHVESAAGLVQAGCSLRLSGAASGRIFRGYAMGWSRPAHGNEWELVAGITWGGGSTYYADSVKGRFTISRDKAKNTVYLQMNSLKPEDTAVYYCNAVRPRQWWTHFGYWGQGTQVTVSS”, the “polyreactivity (PSR sort gate)” value is on record as “high polyreactivity”.

With “QVQHVESAAGLVQAGGSLRLSCAASGRIFYATVMGWYRQAHGKVREFVAAIRWSGSTYYADSVKGRFTISRDNAKNTVYLQMNSLKRVDTAVYYCADEGSRWYYFFYVGGGYWGQGTQVTVSS”, the “polyreactivity (PSR sort gate)” value is recorded as “low polyreactivity”.

On to “QVQHVESAGALVQAGGSLRLSCAASRRTFYRYPMGWYRQAPGKERELVAAISSNGGSTYYADSVKGRFTISRDNGKNTVYLQMNSLKPEDTAVYYCYYYNSRLFDYWGQGTQVTVSS”, for which the “polyreactivity (PSR sort gate)” value is “high polyreactivity”.

On to “QVQHVESAGGLVQAGGSLRLSCAASGRTFSRYAMGWYRQAPGKERELVATITRGGSTNYADSVKGRFTISRDNAKNRVYLQMNSQKPEDTSVYYFIAGCFRYQGTLNHFYYWGQGTQVTVSS”, for which the “polyreactivity (PSR sort gate)” value is listed as “low polyreactivity”.

As to “QVQHVESARGLVPAGGSLRLSCAASGFTVIRYAMGRYRQAPGKERELVAAIRGTGTSTYYADSVKGRFTISRDIAKNTVYLQLNSLKPEDTAVYYCNKVAGRSPYTRYDYWGQGTQVTVSS”, the “polyreactivity (PSR sort gate)” value is given as “low polyreactivity”.

In the case of “QVQHVESGAGIVQAGGSLRLSCAASGSTFKRYAMGWYRQAPGKERELVAAITWRGGSTYYADSVKGRFTISRDNAKNTVYLLMNSLKPDDTAVYYCASDYVYRYDYWGQGTQVTVSS”, the “polyreactivity (PSR sort gate)” value is given as “high polyreactivity”.

“QVQHVESGAGLVQAGGSLLLSCAASGRIFQKYPMGWYRQSPGKERELVAAISRGGSTYYADSVKGRFTISRDNAKNTVYLQMISLNPEDTAVYFCASTSYRRTGYNYWGQGTQVTVSS”: the “polyreactivity (PSR sort gate)” value is recorded as “high polyreactivity”.

Consider “QVQHVESGAGLVQAGGSLRLSCAASGNTFTWYTRGWSRQAPGKERELVAVITSDGATYYADSVKGRFTISRDNAKNTVYLQMNSLKPEDTAVYYCNALSAEWYPEEDYWGQGTQVTVSS”, for which the “polyreactivity (PSR sort gate)” value is on record as “low polyreactivity”.

With “QVQHVESGAGLVQAGGSLRLSCAASGSTFFRANAMGLDRQEPGKERELVAAITGSGGRTYYADSVKGRFTISRDNAKNTVYLQMNSLKPEDTAVYYCATHGVSRPYDYWGPGTQVTVSS”, the “polyreactivity (PSR sort gate)” value was “high polyreactivity”.

With “QVQHVESGGALVQAGGSLRLSCAASGFTFTRNTMGWYRQAPGKERELVAAITRGGSTNYADSVKGRFTISRDNAKNTVYLQMNSLKPEDTAVYYCNKGRNVVLVRTADDYWGQGTQVTVSS”, the “polyreactivity (PSR sort gate)” value is given as “low polyreactivity”.

For the sequence “QVQHVESGGGIVQAGGSLRLSCAASGLTFVYYAMGWYRQAPGTERELVAAISSGGRTYYADSVKGRFTISRDNAKKTVYLQMNSLKPDDTAVYYCAAYGGTHYTYRYDYWGQGTQVTVSS”, the “polyreactivity (PSR sort gate)” value is given as “high polyreactivity”.

For “QVQHVESGGGIVQAGGSLRLSCAASGSIFDRNAMGWYRPAPGQERELVASISWDGGNTYYADSVKGRFTISRDNSTNTVYLQMNSLKPEDTAVYYCAVDLYIWYDGYEYYYWGQGTQVTVSS”, the “polyreactivity (PSR sort gate)” value is “high polyreactivity”.

In the case of “QVQHVESGGGLDQAGGSLPLSCASSGSTFAYYAMGWYRQAPGKERELVASITWSGGITYYADSVKGRFTISRDNAKNTVYLQMNSLKPEETAVYYCNVVPYYGYYYWGQGSQVTVSS”, the “polyreactivity (PSR sort gate)” value is recorded as “low polyreactivity”.

Regarding “QVQHVESGGGLFQAGGSLRLSCAASGTTFRYYAMGWYRQAPVKERELVAYITTSGGTYYADSVKGRFTISRDNAKNTVYLQMNSLKPEDTAVDYCAARRQDYTYYRIYNFDYWGQGTQVTVSS”, the “polyreactivity (PSR sort gate)” value was “high polyreactivity”.

As to “QVQHVESGGGLGQAGGSLRLSCAASGSTFRSYAMGWYRQAPGKERELVAVISSGDSTYYADSLKGSFKISRDNAKNTVYLQMNSLKPDDTAVYYCAADSYFLVRWYGYWGQGTQVTVSS”, the “polyreactivity (PSR sort gate)” value is “low polyreactivity”.

Regarding “QVQHVESGGGLGQAVGSLRLSCAASGFTFARNAMGWDRQAPGQERELVAAISSSGAGTYYADSVKGRFTISRDNSKNTVYLQMNSLKPEDTAVYYCAAYSWKGYDYWGQGTQVTVSS”, the “polyreactivity (PSR sort gate)” value is given as “high polyreactivity”.

Regarding “QVQHVESGGGLLQAGGSLRLSCPASGRTFTVYALGWYRQAPGKDRELVAAFSRSGGRTYYADSVKGRFTISRDNAKNTVYLQRNSLKPEDTAVYYCAADDPYRTNDFDYWGQGTQVTVSS”, the “polyreactivity (PSR sort gate)” value is given as “high polyreactivity”.

Turning to “QVQHVESGGGLVQAGCSLRLSCAASGRIFRLYAMGWYRQARGKERELVAAISSRGGDTYADSVKGRFTISRDNAKNTVYLQMNSLKPEDTAVYYCNAVIYYPYKYGVWYYEYDYWGQGTQVTVSS”, the “polyreactivity (PSR sort gate)” value is on record as “low polyreactivity”.

Regarding “QVQHVESGGGLVQAGGCLRVSCAASGRTFIYYAMGGYRPAPGKERELVAAITNRGGSTYYADSVKGRFTISRDNAQNTVYLLMNSLNPEDTAVYYCAARGKYPSASAYTYSYGYWGQGTQVTVSS”, the “polyreactivity (PSR sort gate)” value is listed as “high polyreactivity”.

On to “QVQHVESGGGLVQAGGRLRLRCAASGSIFGTYAMGWYRQAPGKERELVARISGGGSTYYADSVKGRFTISRDNAKNTVYLQMNSLKPEDTAVYYCNVRKWAYWSHAIIYNYWGQGTQVTVSS”, for which the “polyreactivity (PSR sort gate)” value is “high polyreactivity”.

For “QVQHVESGGGLVQAGGSHPLSCAASGRIFQYNALGWYRKATGKERELLAAISLSGVRTYYADSVKGRFTISRDNAKNTVYLQMNSLKPEDTAVYYCAAVRFDRARGSPYPDRVGVYSWGQGTQVTVSS”, the “polyreactivity (PSR sort gate)” value is recorded as “high polyreactivity”.

Regarding “QVQHVESGGGLVQAGGSLPLSCAASGFIFYNYAQRCYTQPPGKERELVAAISSGDDTTYADSVKGRFTISRDNAKNTVYLQMNSLKPDDTAVYYCNTVRSVKQQGPYGYCGQGTQVTVSS”, the “polyreactivity (PSR sort gate)” value is recorded as “low polyreactivity”.

With “QVQHVESGGGLVQAGGSLRISCAASGFIFGPYAMGWSRKAPGKERELVAAISGRDGSTYYADSVKGRFTISRDNAKNSVYLHMNSLKPEDTAVYYCAAEVWTALYYSYYGYRYYWGQGTQVTLSS”, the “polyreactivity (PSR sort gate)” value is on record as “high polyreactivity”.

Regarding “QVQHVESGGGLVQAGGSLRISCAASGSIFYYNAMGWYRQAPGKERELVAAISWGDGITYYADSVKGRFTISRDNAKNTVYLQMNSLKPEDTAVYYCAVDYYYLAYEYWGQGTQVTVSS”, the “polyreactivity (PSR sort gate)” value was “high polyreactivity”.

As for “QVQHVESGGGLVQAGGSLRISCAASGSTFPRYGKGRYRQAPGKERELVAAISSGGGRTYYADSVKGRFTISRDNAKNTVYVQMNSLKPEDTAVYYCNKRPSHWRHYIMDYWGQGTQVTVSS”, the “polyreactivity (PSR sort gate)” value is given as “high polyreactivity”.

Turning to “QVQHVESGGGLVQAGGSLRLSCAASAIIFGDYAMGWYRQAPGKETELVAAINLDGTSTYYADSVKGRFTISRDIAKHSVYLQINSLKTEDTAGFYCAAVPDKYCCRVRRYLFEHNYWGQGTQVTVSS”, the “polyreactivity (PSR sort gate)” value is given as “low polyreactivity”.

“QVQHVESGGGLVQAGGSLRLSCAASGFIFASYAMGWSRQPPGKERELVAAISWRGGSTYYADSVKGRFTISRDNAKNTLYLQMNSLKPVDTAVYYCNAYVYVCTGRGYDTLDYWGQGTQVTVSS”: the “polyreactivity (PSR sort gate)” value was “low polyreactivity”.

Take “QVQHVESGGGLVQAGGSLRLSCAASGFIFGRYTMGWYRQAPGKERELVAAISRGGITNYADSVKGRFTISRDNAKNTVYLQMNSLKPEDTAVYYCNAVGVRPGFKGFDYWGQGTQVTVSS”: the “polyreactivity (PSR sort gate)” value was “high polyreactivity”.

With “QVQHVESGGGLVQAGGSLRLSCAASGFIFPYYDMGWYRQAPGKEREFVAAITKSGGRTYYADSVKGRFTISRDNAKNPVYLQMNSLKPEDTAVYYCAAEPDTYWYTYDYWGQGTQVTVSS”, the “polyreactivity (PSR sort gate)” value is on record as “low polyreactivity”.

Consider “QVQHVESGGGLVQAGGSLRLSCAASGFIFWYYAMGWYRKAPGKERELVAAISSRGGSTYYADSVKGRFTISRDNAKNTVYLQLNSLKPEDTAGYYCATPSKALPPHGRAILDYWGQGTQVTVSS”, for which the “polyreactivity (PSR sort gate)” value was “high polyreactivity”.

On to “QVQHVESGGGLVQAGGSLRLSCAASGFILDTYGMGWYRQAPGKERELVAAISQSDVSTYYADSVKGRFTISRDNAKNTVDLQMNSLKPEDTAVYDCAADRGGLRWFWQVLYDYWGQGTQVTVSS”, for which the “polyreactivity (PSR sort gate)” value is recorded as “low polyreactivity”.

The values are drawn from the nanobody polyreactivity screen of Harvey et al. (2022).
